Results on one substance are retold here after US20210188971A1.

Assay [1] addresses L1-10_NLuc antigen (Strep-MBP-L1-10-Nluc) (human). In words: competition ELISA, soluble M22 titrated with L1-10_NLuc at 0.1 µg/mL; competitor M22 coated on the plate.
Assay [2] has the same target. In words: luminescence ELISA, M22 directly coated, L1-10_NLuc titrated.
Assay [3] shares this target. The experiment in a line: competition ELISA, soluble M22 titrated with L1-10_NLuc at 0.2 µg/mL; competitor M22 coated on the plate. A general note: An ELISA detects its analyte on a solid surface through an enzyme-linked reagent.
The target is the same in assay [4]. In words: competition ELISA, soluble M22 titrated with L1-10_NLuc at 1 µg/mL; competitor M22 coated on the plate.

Broadly, the IC50 is the concentration at which inhibition is half-maximal. In the case of “M22, unlabeled (thyroid-stimulating TSHR-specific monoclonal antibody)”, the IC50 worked out at 0.008 µg/mL in assay [1], 0.012 µg/mL in assay [3] and 0.03 µg/mL in assay [4]. Further, in assay [2], the RLU was < 7e+06 RLU.
